This is an account of results in patent US20200308257A1.

Assay in all cases: cell-based or functional assay
Assay [1] has as its target H3N2 circulating viruses (n=30) and vaccines strains (n=4).
Assay [2] deals with all H3N2 and H1N1 circulating strains and vaccines strains (n=55 viruses).
For assay [3], the target named is H1N1 circulating viruses (n=18) and vaccines strains (n=3).

B1: VIS410 (antibody, V domains shown)
VH: QVQLLETGGGLVKPGQSLKLSCAASGFTFTSYAMHWVRQPPGKGLEWVAVVSYDGNYKYYADSVQGRFTISRDNSKNTLYLQMNSLRAEDTAVYYCAKDSRLRSLLYFEWLSQGYFNPWGQGTTLTVSS
VL: DIQMTQSPSSLSASVGDRVTITCRSSQSITFDYKNYLAWYQQKPGKAPKLLIYWGSYLESGVPSRFSGSGSGTDFTLTISSLQPEDFATYYCQQHYRTPPSFGQGTKVEIK
As to B1, the figures for the Mean IC50, phenotypic IC50 assay in assay [1] and in assay [3] were 1.3 mg/L and 0.6 mg/L, respectively. The Median IC50, phenotypic IC50 assay in assay [2] was found to be 0.9 mg/L.
